Source: PMC10663500, “High-throughput analysis system of interaction kinetics for data-driven antibody design” (Scientific Reports, 2023)

Target: T1, human programmed cell death protein 1 (hPD-1) C93S (aa 24-167) (Homo sapiens, UniProt Q15116, C93S)
T1 construct: made as a fusion with a TEV site and human Fc; the Fc was cut off with TEV protease; source: Expi293F, purified (Protein A, TEV cleavage of Fc, SEC; monomer fractions); not shown: Fc (human), C-terminal, cleaved
Assay: SPR; Carterra LSA; Fab from the ammonium sulfate precipitate of the culture supernatant immobilised on a NiHC200M chip; hPD-1 (1-1024 nM) or mPD-1-Fc (4-1024 nM) as analyte, fourfold dilution series, no regeneration; HBS-EP pH 7.4, 25 °C; medians over the spots of a construct, KD = koff/kon
Settings: one partner purified
Procedure, shortened: (§1)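 Fabs, ammonium sulfate-precipitated from Brevibacillus supernatants and redissolved in HBS-EP, were captured in duplicate on a NiHC200M chip on a Carterra LSA at 25 °C. Fourfold series of human PD-1 (1–1024 nM) or mouse PD-1-Fc (4–1024 nM) were run without regeneration, with association for 10 min and dissociation for 5 min. Rates were fitted with the kdka model, choosing the better of slow- or fast-dissociation settings, and unconfirmed binders were given kon 10^3 […] and koff 10^−2 s^−1. The dissociation constant KD is koff/kon based on per-construct medians.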

T1 sequence (Q15116 24-167 C93S): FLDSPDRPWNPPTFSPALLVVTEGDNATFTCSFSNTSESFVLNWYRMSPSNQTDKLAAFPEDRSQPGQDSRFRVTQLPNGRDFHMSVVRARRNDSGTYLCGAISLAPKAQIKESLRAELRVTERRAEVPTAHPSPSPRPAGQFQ

| Binder | Kd | koff | kon |
| --- | --- | --- | --- |
| toripalimab Fab H.I51Y (Fab, V domains shown, heavy chain of Sm3 with this change; numbers count from the chain's first residue; as the light chain of Sm3; source: Brevibacillus, culture supernatant (ammonium sulfate precipitate); not shown: 6xHis, C-terminal, kept; 6xHN, C-terminal, kept) VH: QGQLVQSGAEVKKPGASVKVSCKASGYTFTDYEMHWVRQAPIHGLEWIGVYESETGGTAYNQKFKGRVTITADKSTSTAYMELSSLRSEDTAVYYCAREGITTVATTYYWYFDVWGQGTTVTVSS VL: DVVMTQSPLSLPVTLGQPASISCRSSQSIVHSNGNTYLEWYLQKPGQSPQLLIYKVSNRFSGVPDRFSGSGSGTDFTLKISRVEAEDVGVYYCFQGSHVPLTFGQGTKLEIK | 8.01 nM | 0.000297 s⁻¹ | 37000 M⁻¹ s⁻¹ |
| toripalimab Fab L.S97Y (Fab, V domains shown, as the heavy chain of Sm3; light chain of Sm3 with this change; numbers count from the chain's first residue; source: Brevibacillus, culture supernatant (ammonium sulfate precipitate); not shown: 6xHis, C-terminal, kept; 6xHN, C-terminal, kept) VH: QGQLVQSGAEVKKPGASVKVSCKASGYTFTDYEMHWVRQAPIHGLEWIGVIESETGGTAYNQKFKGRVTITADKSTSTAYMELSSLRSEDTAVYYCAREGITTVATTYYWYFDVWGQGTTVTVSS VL: DVVMTQSPLSLPVTLGQPASISCRSSQSIVHSNGNTYLEWYLQKPGQSPQLLIYKVSNRFSGVPDRFSGSGSGTDFTLKISRVEAEDVGVYYCFQGYHVPLTFGQGTKLEIK | 63.3 nM | 0.000845 s⁻¹ | 13300 M⁻¹ s⁻¹ |
| toripalimab Fab H.D113Y (Fab, V domains shown, heavy chain of Sm3 with this change; numbers count from the chain's first residue; as the light chain of Sm3; source: Brevibacillus, culture supernatant (ammonium sulfate precipitate); not shown: 6xHis, C-terminal, kept; 6xHN, C-terminal, kept) VH: QGQLVQSGAEVKKPGASVKVSCKASGYTFTDYEMHWVRQAPIHGLEWIGVIESETGGTAYNQKFKGRVTITADKSTSTAYMELSSLRSEDTAVYYCAREGITTVATTYYWYFYVWGQGTTVTVSS VL: DVVMTQSPLSLPVTLGQPASISCRSSQSIVHSNGNTYLEWYLQKPGQSPQLLIYKVSNRFSGVPDRFSGSGSGTDFTLKISRVEAEDVGVYYCFQGSHVPLTFGQGTKLEIK | < 1.6 nM | < 1e-05 s⁻¹ | 6230 M⁻¹ s⁻¹ |
| toripalimab Fab L.L101W (Fab, V domains shown, as the heavy chain of Sm3; light chain of Sm3 with this change; numbers count from the chain's first residue; source: Brevibacillus, culture supernatant (ammonium sulfate precipitate); not shown: 6xHis, C-terminal, kept; 6xHN, C-terminal, kept) VH: QGQLVQSGAEVKKPGASVKVSCKASGYTFTDYEMHWVRQAPIHGLEWIGVIESETGGTAYNQKFKGRVTITADKSTSTAYMELSSLRSEDTAVYYCAREGITTVATTYYWYFDVWGQGTTVTVSS VL: DVVMTQSPLSLPVTLGQPASISCRSSQSIVHSNGNTYLEWYLQKPGQSPQLLIYKVSNRFSGVPDRFSGSGSGTDFTLKISRVEAEDVGVYYCFQGSHVPWTFGQGTKLEIK | 237 nM | 0.0322 s⁻¹ | 136000 M⁻¹ s⁻¹ |
| toripalimab Fab L.H31Y (Fab, V domains shown, as the heavy chain of Sm3; light chain of Sm3 with this change; numbers count from the chain's first residue; source: Brevibacillus, culture supernatant (ammonium sulfate precipitate); not shown: 6xHis, C-terminal, kept; 6xHN, C-terminal, kept) VH: QGQLVQSGAEVKKPGASVKVSCKASGYTFTDYEMHWVRQAPIHGLEWIGVIESETGGTAYNQKFKGRVTITADKSTSTAYMELSSLRSEDTAVYYCAREGITTVATTYYWYFDVWGQGTTVTVSS VL: DVVMTQSPLSLPVTLGQPASISCRSSQSIVYSNGNTYLEWYLQKPGQSPQLLIYKVSNRFSGVPDRFSGSGSGTDFTLKISRVEAEDVGVYYCFQGSHVPLTFGQGTKLEIK | 17.2 nM | 0.000663 s⁻¹ | 38600 M⁻¹ s⁻¹ |
| toripalimab Fab L.L101H (Fab, V domains shown, as the heavy chain of Sm3; light chain of Sm3 with this change; numbers count from the chain's first residue; source: Brevibacillus, culture supernatant (ammonium sulfate precipitate); not shown: 6xHis, C-terminal, kept; 6xHN, C-terminal, kept) VH: QGQLVQSGAEVKKPGASVKVSCKASGYTFTDYEMHWVRQAPIHGLEWIGVIESETGGTAYNQKFKGRVTITADKSTSTAYMELSSLRSEDTAVYYCAREGITTVATTYYWYFDVWGQGTTVTVSS VL: DVVMTQSPLSLPVTLGQPASISCRSSQSIVHSNGNTYLEWYLQKPGQSPQLLIYKVSNRFSGVPDRFSGSGSGTDFTLKISRVEAEDVGVYYCFQGSHVPHTFGQGTKLEIK | 60.6 nM | 0.00111 s⁻¹ | 18400 M⁻¹ s⁻¹ |
| toripalimab Fab L.G96A (Fab, V domains shown, as the heavy chain of Sm3; light chain of Sm3 with this change; numbers count from the chain's first residue; source: Brevibacillus, culture supernatant (ammonium sulfate precipitate); not shown: 6xHis, C-terminal, kept; 6xHN, C-terminal, kept) VH: QGQLVQSGAEVKKPGASVKVSCKASGYTFTDYEMHWVRQAPIHGLEWIGVIESETGGTAYNQKFKGRVTITADKSTSTAYMELSSLRSEDTAVYYCAREGITTVATTYYWYFDVWGQGTTVTVSS VL: DVVMTQSPLSLPVTLGQPASISCRSSQSIVHSNGNTYLEWYLQKPGQSPQLLIYKVSNRFSGVPDRFSGSGSGTDFTLKISRVEAEDVGVYYCFQASHVPLTFGQGTKLEIK | 372 nM | 0.00516 s⁻¹ | 13900 M⁻¹ s⁻¹ |
| toripalimab Fab H.E54Y (Fab, V domains shown, heavy chain of Sm3 with this change; numbers count from the chain's first residue; as the light chain of Sm3; source: Brevibacillus, culture supernatant (ammonium sulfate precipitate); not shown: 6xHis, C-terminal, kept; 6xHN, C-terminal, kept) VH: QGQLVQSGAEVKKPGASVKVSCKASGYTFTDYEMHWVRQAPIHGLEWIGVIESYTGGTAYNQKFKGRVTITADKSTSTAYMELSSLRSEDTAVYYCAREGITTVATTYYWYFDVWGQGTTVTVSS VL: DVVMTQSPLSLPVTLGQPASISCRSSQSIVHSNGNTYLEWYLQKPGQSPQLLIYKVSNRFSGVPDRFSGSGSGTDFTLKISRVEAEDVGVYYCFQGSHVPLTFGQGTKLEIK | < 0.326 nM | < 1e-05 s⁻¹ | 30700 M⁻¹ s⁻¹ |
| toripalimab Fab L.E39A (Fab, V domains shown, as the heavy chain of Sm3; light chain of Sm3 with this change; numbers count from the chain's first residue; source: Brevibacillus, culture supernatant (ammonium sulfate precipitate); not shown: 6xHis, C-terminal, kept; 6xHN, C-terminal, kept) VH: QGQLVQSGAEVKKPGASVKVSCKASGYTFTDYEMHWVRQAPIHGLEWIGVIESETGGTAYNQKFKGRVTITADKSTSTAYMELSSLRSEDTAVYYCAREGITTVATTYYWYFDVWGQGTTVTVSS VL: DVVMTQSPLSLPVTLGQPASISCRSSQSIVHSNGNTYLAWYLQKPGQSPQLLIYKVSNRFSGVPDRFSGSGSGTDFTLKISRVEAEDVGVYYCFQGSHVPLTFGQGTKLEIK | 88.4 nM | 0.000203 s⁻¹ | 2290 M⁻¹ s⁻¹ |

Target: T2, mouse programmed cell death protein 1 Fc fusion protein (mPD-1-Fc), mPD-1 C60S (aa 25-167) (Mus musculus, UniProt Q02242, stabilised)
T2 construct: not cleaved; source: Expi293F, purified (Protein A, SEC; dimeric fraction); not shown: Fc (human), C-terminal, kept
Assay: as above
Settings: one partner purified
Procedure, shortened: as §1

| Binder | Kd | koff | kon |
| --- | --- | --- | --- |
| toripalimab Fab H.E54Y (Fab, V domains shown, heavy chain of Sm3 with this change; numbers count from the chain's first residue; as the light chain of Sm3; source: Brevibacillus, culture supernatant (ammonium sulfate precipitate); not shown: 6xHis, C-terminal, kept; 6xHN, C-terminal, kept) VH: QGQLVQSGAEVKKPGASVKVSCKASGYTFTDYEMHWVRQAPIHGLEWIGVIESYTGGTAYNQKFKGRVTITADKSTSTAYMELSSLRSEDTAVYYCAREGITTVATTYYWYFDVWGQGTTVTVSS VL: DVVMTQSPLSLPVTLGQPASISCRSSQSIVHSNGNTYLEWYLQKPGQSPQLLIYKVSNRFSGVPDRFSGSGSGTDFTLKISRVEAEDVGVYYCFQGSHVPLTFGQGTKLEIK | 80.3 nM | 0.00402 s⁻¹ | 50100 M⁻¹ s⁻¹ |
